Experimental data reported in article PMC3429342.

Experiments:
Experiment in all cases: AUC
[1] = biological target: Dscam1 4C.31.8 fragment containing the N-terminal 8 Ig domains (Drosophila melanogaster)
[2] = biological target: Dscam1 3C.31.8 fragment containing the N-terminal 8 Ig domains (Drosophila melanogaster)
[3] = biological target: Dscam1^3.31.8 fragment containing the N-terminal 8 Ig domains (Drosophila melanogaster)
[4] = biological target: Dscam1 11C.27.25 fragment containing the N-terminal 8 Ig domains (Drosophila melanogaster)
[5] = biological target: Dscam1 10C.27.25 fragment containing the N-terminal 8 Ig domains (Drosophila melanogaster)
[6] = biological target: Dscam1^10.27.25 fragment containing the N-terminal 8 Ig domains (Drosophila melanogaster)

Substance: Dscam1 4C.31.8 fragment containing the N-terminal 8 Ig domains (domain or fragment)
- Kd [1]: > 500 µM

Substance: Dscam1 3C.31.8 fragment containing the N-terminal 8 Ig domains (domain or fragment)
- Kd [2]: > 500 µM
- Kd [1]: 0.99 µM

Substance: Dscam1^3.31.8 fragment containing the N-terminal 8 Ig domains (domain or fragment)
- Kd [3]: 2.12 µM
- stoichiometry N [3]: 2

Substance: Dscam1 11C.27.25 fragment containing the N-terminal 8 Ig domains (domain or fragment)
- Kd [4]: > 500 µM

Substance: Dscam1 10C.27.25 fragment containing the N-terminal 8 Ig domains (domain or fragment)
- Kd [5]: > 500 µM
- Kd [4]: 4.6 µM

Substance: Dscam1^10.27.25 fragment containing the N-terminal 8 Ig domains (domain or fragment)
- Kd [6]: 1 µM
- stoichiometry N [6]: 2
